PMC2762204 (Cancer research, 2009)

B1: FLAG-Sprouty2 2A (S111 and S120 to alanines) (natural protein, mouse, UniProt Q9QXV8 1-315, looked up)
chain: MEARAQSGNGSQPLLQTAHDSGRQRGEPDPRDALTQQVHVLSLDQIRAIRNTNEYTEGPTVVPRPGLKPAPRPSTQHKHERLHGLPEHRQPPRLQPSQVHSSRAPLSRSIATVSSGSRSATRTSTSSSSSEQRLLGPSFSHGPAAADGIIRVQPKSELKPGDVKPLSKDDLGLHAYRCEDCGKCKCKECTYPRPLPSDWICDKQCLCSAQNVIDYGTCVCCVKGLFYHCSNDDEDNCADNPCSCSQSHCCTRWSAMGVMSLFLPCLWCYLPAKGCLKLCQGCYDRVNRPGCRCKNSNTVCCKVPTVPPRNFEKPT
B2: FLAG-Sprouty2 6A (all six serine sites to alanines) (natural protein, mouse, UniProt Q9QXV8 1-315, looked up)
chain: MEARAQAGNGSQPLLQTAHDSGRQRGEPDPRDALTQQVHVLALDQIRAIRNTNEYTEGPTVVPRPGLKPAPRPSTQHKHERLHGLPEHRQPPRLQPSQVHSSRAPLSRSIATVSSGSRSATRTSTSSSSSEQRLLGPSFAHGPAAADGIIRVQPKSELKPGDVKPLAKDDLGLHAYRCEDCGKCKCKECTYPRPLPSDWICDKQCLCSAQNVIDYGTCVCCVKGLFYHCSNDDEDNCADNPCSCSQSHCCTRWSAMGVMSLFLPCLWCYLPAKGCLKLCQGCYDRVNRPGCRCKNSNTVCCKVPTVPPRNFEKPT

Legend:
[1] = biological target: FLAG-Sprouty2 co-expressed with active MEK:EE (phosphorylated) (mouse) (UniProt Q9QXV8); experiment: pull-down
Myc-B-Raf wild-type = Myc-B-Raf wild-type (UniProt P15056 1-766); experiment: co-IP
Chain of Myc-B-Raf wild-type (P15056 whole entry): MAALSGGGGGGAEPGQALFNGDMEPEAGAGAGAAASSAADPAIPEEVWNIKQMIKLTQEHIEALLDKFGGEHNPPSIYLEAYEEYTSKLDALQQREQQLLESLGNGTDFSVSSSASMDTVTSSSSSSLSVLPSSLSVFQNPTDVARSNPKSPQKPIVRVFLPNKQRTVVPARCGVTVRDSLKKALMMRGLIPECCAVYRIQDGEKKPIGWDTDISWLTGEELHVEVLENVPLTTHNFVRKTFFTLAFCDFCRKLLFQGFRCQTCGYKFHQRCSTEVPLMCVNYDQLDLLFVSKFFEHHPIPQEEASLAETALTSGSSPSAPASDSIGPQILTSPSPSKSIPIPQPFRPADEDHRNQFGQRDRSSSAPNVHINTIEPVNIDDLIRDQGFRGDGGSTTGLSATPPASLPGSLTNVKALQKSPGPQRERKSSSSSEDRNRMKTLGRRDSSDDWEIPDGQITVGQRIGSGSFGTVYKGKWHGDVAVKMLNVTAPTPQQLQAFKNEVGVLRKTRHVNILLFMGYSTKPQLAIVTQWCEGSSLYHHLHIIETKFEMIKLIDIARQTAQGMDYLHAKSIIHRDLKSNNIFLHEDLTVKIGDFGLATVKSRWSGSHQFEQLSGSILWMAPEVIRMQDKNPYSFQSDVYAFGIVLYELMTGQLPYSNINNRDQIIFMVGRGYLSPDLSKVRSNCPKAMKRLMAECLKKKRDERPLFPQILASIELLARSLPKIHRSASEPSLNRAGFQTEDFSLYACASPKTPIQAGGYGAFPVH

Molecule | percent reduction of binding against Sprouty2 expressed without MEK:EE [1] [%] | fold change of B-Raf binding against wild-type Sprouty2 (Myc-B-Raf wild-type) [fold]
Recombinant human wild-type GST-B-Raf catalytic domain (domain or fragment) | 40 | 
B1 |  | ~2
B2 |  | ~3.5
